Values of other authors as cited in publication PMC3413316.

Key:
[1] = biological target: Activated protein C (Homo sapiens) (UniProt P04070)
[2] = biological target: Protein C (Homo sapiens) (UniProt P04070)
Protein C (Homo sapiens), sequence (P04070 43-197): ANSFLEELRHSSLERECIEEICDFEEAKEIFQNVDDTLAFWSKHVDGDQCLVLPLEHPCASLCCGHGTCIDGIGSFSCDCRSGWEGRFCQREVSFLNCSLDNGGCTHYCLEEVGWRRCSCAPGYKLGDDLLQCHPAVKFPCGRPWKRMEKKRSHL

EPCR, sequence (Q9UNN8 18-210): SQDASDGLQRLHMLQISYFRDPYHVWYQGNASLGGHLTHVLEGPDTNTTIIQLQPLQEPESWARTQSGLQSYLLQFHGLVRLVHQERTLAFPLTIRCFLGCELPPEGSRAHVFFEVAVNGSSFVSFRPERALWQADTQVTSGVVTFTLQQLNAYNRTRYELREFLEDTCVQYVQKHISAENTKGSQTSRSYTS
Activated protein C (Homo sapiens), sequence (P04070 43-197, chain 1 of 2): as the sequence (P04070 43-197) above
Activated protein C (Homo sapiens), sequence (P04070 212-461, chain 2 of 2): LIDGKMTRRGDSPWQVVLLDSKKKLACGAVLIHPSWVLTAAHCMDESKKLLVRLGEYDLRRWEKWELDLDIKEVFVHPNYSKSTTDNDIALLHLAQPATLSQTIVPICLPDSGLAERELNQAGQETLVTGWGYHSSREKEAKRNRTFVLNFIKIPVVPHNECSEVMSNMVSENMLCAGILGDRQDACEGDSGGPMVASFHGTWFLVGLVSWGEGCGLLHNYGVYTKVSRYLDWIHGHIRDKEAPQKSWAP

Kd [1]: 60 nM
Kd [2]: 60 nM
Substance: EPCR (from UniProt Q9UNN8)
